Assay results from patent US20230287362.

Target: T1, E. cloacae His6-CD-NTase fused at its C terminus to GFP
T1 chain: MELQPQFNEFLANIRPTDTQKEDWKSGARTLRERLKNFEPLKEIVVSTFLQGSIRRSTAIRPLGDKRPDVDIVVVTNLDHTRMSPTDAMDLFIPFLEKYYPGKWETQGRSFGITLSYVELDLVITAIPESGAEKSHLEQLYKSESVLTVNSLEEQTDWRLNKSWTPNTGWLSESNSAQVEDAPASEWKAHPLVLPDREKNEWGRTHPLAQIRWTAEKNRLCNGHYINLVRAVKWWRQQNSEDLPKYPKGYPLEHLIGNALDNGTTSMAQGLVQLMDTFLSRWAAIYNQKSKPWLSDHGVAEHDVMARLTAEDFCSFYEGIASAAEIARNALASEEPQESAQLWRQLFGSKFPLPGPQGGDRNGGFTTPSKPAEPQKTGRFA

B1: E. cloacae Cap3, residues 17-180 of the annotated gene (protein)
chain: MSIKDVTFSSEGALYTIVISSSTIEQMVSECLKAGVNETGGILIGSYSEDSSTAMIVEATTRPADSLAGRTTFQRGVRGLRPLLHARWKTGLYYVGEWHFHPGGSPEPSGDDFRSMTSIAANSDYQCLEPVMIILGGDPAGSYSLSASVSPRGDAPIRLREVLI
- cleavage of the CD-NTase-GFP model substrate (SDS-PAGE, mass spectrometry): Both Cap3 proteins precisely cleaved the CD-NTase-GFP fusions at the CD-NTase C terminus
